To fix the notation:
B1: CIgE4A1A1(GS)2 (Fc fusion)
chain 1: GPPCPPCPAPEFLGGPSVFLFPPKPKDTLMISRTPEVTCVVVDVSQEDPEVQFNWYVDGVEVHNAKTKPREEQFNSTYRVVSVLTVLHQDWLNGKEYKCKVSNKGLPSSIEKTISKAKGQPREPQVYTLPPCQEEMTKNQVSLWCLVKGFYPSDIAVEWESNGQPENNYKTTPPVLDSDGSFFLYSRLTVDKSRWQEGNVFSCSVMHEALHNHYTQKSLSLSLGKGGGGSGGGGSEVQLLESGGGLVQPGGSLRLSCAASGFTFGNYDMAWVRQAPGKRPEWVSSIDTGGDITHYADSVKGRFTISRDNAKNTLYLQMNSLRPEDTAVYWCATDEEYALGPNEFDYYGQGTLVTVSS
chain 2: B1 chain 1 with Y127C, C132S, W144S, L146A, Y185V
B2: CIgG4A1A1(RS) (Fc fusion)
chain 1: GPPCPPCPAPEFLGGPSVFLFPPKPKDTLMISRTPEVTCVVVDVSQEDPEVQFNWYVDGVEVHNAKTKPREEQFNSTYRVVSVLTVLHQDWLNGKEYKCKVSNKGLPSSIEKTISKAKGQPREPQVYTLPPCQEEMTKNQVSLWCLVKGFYPSDIAVEWESNGQPENNYKTTPPVLDSDGSFFLYSRLTVDKSRWQEGNVFSCSVMHEALHNHYTQKSLSLSLGKRSEVQLLESGGGLVQPGGSLRLSCAASGFTFGNYDMAWVRQAPGKRPEWVSSIDTGGDITHYADSVKGRFTISRDNAKNTLYLQMNSLRPEDTAVYWCATDEEYALGPNEFDYYGQGTLVTVSS
chain 2: B2 chain 1 with Y127C, C132S, W144S, L146A, Y185V
B3: CIgE4A1A1(GS)1 (Fc fusion)
chain 1: GPPCPPCPAPEFLGGPSVFLFPPKPKDTLMISRTPEVTCVVVDVSQEDPEVQFNWYVDGVEVHNAKTKPREEQFNSTYRVVSVLTVLHQDWLNGKEYKCKVSNKGLPSSIEKTISKAKGQPREPQVYTLPPCQEEMTKNQVSLWCLVKGFYPSDIAVEWESNGQPENNYKTTPPVLDSDGSFFLYSRLTVDKSRWQEGNVFSCSVMHEALHNHYTQKSLSLSLGKGGGGSEVQLLESGGGLVQPGGSLRLSCAASGFTFGNYDMAWVRQAPGKRPEWVSSIDTGGDITHYADSVKGRFTISRDNAKNTLYLQMNSLRPEDTAVYWCATDEEYALGPNEFDYYGQGTLVTVSS
chain 2: B3 chain 1 with Y127C, C132S, W144S, L146A, Y185V

Where a chain is given by its changes, count along the chain named.

Sequence of mixture of three Der p 2 specific recombinant human IgE clones H10, H12, P4E (human) (P01854 other isoform, or with tags, fused parts or gaps): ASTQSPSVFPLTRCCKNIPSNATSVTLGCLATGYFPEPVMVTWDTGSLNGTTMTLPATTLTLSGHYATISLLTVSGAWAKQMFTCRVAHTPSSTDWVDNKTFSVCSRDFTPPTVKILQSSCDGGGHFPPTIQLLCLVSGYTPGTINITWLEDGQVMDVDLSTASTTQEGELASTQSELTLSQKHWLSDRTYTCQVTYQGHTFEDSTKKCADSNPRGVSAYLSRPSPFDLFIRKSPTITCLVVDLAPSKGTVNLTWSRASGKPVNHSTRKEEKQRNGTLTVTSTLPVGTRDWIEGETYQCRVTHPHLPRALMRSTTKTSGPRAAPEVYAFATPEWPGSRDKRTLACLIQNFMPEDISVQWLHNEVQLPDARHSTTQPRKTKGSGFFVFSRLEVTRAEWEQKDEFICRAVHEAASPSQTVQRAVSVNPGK

This assay concerns the target mixture of three Der p 2 specific recombinant human IgE clones H10, H12, P4E (human) (UniProt P01854). The assay can be described thus: RBL-SX38 IgE displacement, FACS.
Take B1: the Max effect/effect 1 µM is 19%.

As to B2, the Max effect/effect 1 µM stood at 11%.

Regarding B3, the Max effect/effect 1 µM stood at 7%.
